Earlier results, collected in patent US9163073B2, “Chemically and thermodynamically stable insulin analogues and improved methods for their production” (AMIDEBIO LLC, priority 2013, dated 2015).

Key:
[1] = test system: breast cancer; details: in vivo
[2] = after one year in acidic formulations
[3] = molecular target: insulin receptor over the IGF-1R (Homo sapiens, UniProt P06213)

Row | Substance | induction of breast cancer [1] | AsnA21 deamidation [2] | selectivity for its own receptor over the IGF-1R [3]
1 | AspB10 insulin: insulin analogue with AspB10 substitution, relatively high affinity for the IGF-1R | induce breast cancer | – | –
2 | native insulin: native two-chain human insulin (A chain SEQ ID NO 2, B chain SEQ ID NO 3) | – | 20-30% | > 100 fold
